Results: PMC13170487 (Journal of molecular biology, 2025)

T1: Tax-interacting protein 1 (TIP-1), His10 tag cleaved (UniProt O14907 1-124)
T1 sequence (looked up): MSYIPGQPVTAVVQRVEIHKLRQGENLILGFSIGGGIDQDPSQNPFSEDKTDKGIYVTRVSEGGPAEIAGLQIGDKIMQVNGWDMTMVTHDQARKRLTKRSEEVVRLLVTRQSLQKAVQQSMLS


Columns and labels:
[1] = molecular target: CFTR-associated ligand (CAL) PDZ domain (UniProt Q9HD26-2 276-362); test: fluorescence polarisation
[2] = molecular target: T1, Tax-interacting protein 1 (TIP-1), …; test: fluorescence polarisation

Ki [1] [µM] | Ki [2] [µM] | Binder
3.1 | 2.4 | WRFKKANSRWPTSII [BT-iCAL36]
– | > 1000 | ANSRLPTSII [L-iCAL36]
– | 390 | ANSRYPTSII [Y-iCAL36]
